This note sets out measurements from article PMC5705802, “A hypermorphic antioxidant response element is associated with increased MS4A6A expression and Alzheimer's disease”.

Series [1] has as its target T1, NRF2;MAFG (Homo sapiens;Homo sapiens?, UniProt Q16236;O15525 1-605;1-162, |). Kind of series: EMSA; 75 nM NRF2, 37.5 nM MAFG; unlabeled N1 also competes; 20 mM HEPES (pH not stated), 4 mM MgCl2, 20 mM KCl, 5 mM DTT, 1 mM EDTA, 100 ug/ml BSA, 4% glycerol, poly(dI-dC), 30 min room temperature; native gel 1X TBE. Particulars: protein: recombinant;commercial; tags: His, Flag3 (plasmid pPROHEX-HC-Flag3-NRF2);; copies: 1;1; label: IRDye-700 as probe; blunt.

The target of series [2] is T2, FOS;JUN (Homo sapiens?;Homo sapiens?, UniProt P01100;P05412 1-380;1-331, |). Briefly: EMSA; 75 nM each; unlabeled N1 also competes; 20 mM HEPES (pH not stated), 4 mM MgCl2, 20 mM KCl, 5 mM DTT, 1 mM EDTA, 100 ug/ml BSA, 4% glycerol, poly(dI-dC), 30 min room temperature; native gel 1X TBE. As to conditions: protein: commercial;commercial; tags: ;; copies: 1;1; label: IRDye-700 as probe; blunt. (A gel shift assay detects complexes by their altered migration in electrophoresis.)

For series [3], the target named is T3, NRF1;MAFG (Homo sapiens;Homo sapiens?, UniProt Q14494;O15525 1-772;1-162, |). Kind of series: EMSA; TNT NRF1 2 ul/20 ul, 37.5 nM MAFG; unlabeled N1 also competes; 20 mM HEPES (pH not stated), 4 mM MgCl2, 20 mM KCl, 5 mM DTT, 1 mM EDTA, 100 ug/ml BSA, 4% glycerol, poly(dI-dC), 30 min room temperature; native gel 1X TBE. Particulars: protein: ivt;commercial; tags: His (plasmid pPB-N-His-NRF1, abm PV028854);; copies: 1;1; label: IRDye-700 as probe; blunt.

Series [4] addresses T2, FOS;JUN. Kind of series: competition EMSA; unlabeled vs labeled N1; 20 mM HEPES (pH not stated), 4 mM MgCl2, 20 mM KCl, 5 mM DTT, 1 mM EDTA, 100 ug/ml BSA, 4% glycerol, poly(dI-dC), 30 min room temperature; native gel 1X TBE. As to conditions: protein: commercial;commercial; tags: ;; copies: 1;1; blunt.
Series [5] addresses T3, NRF1;MAFG. Briefly: competition EMSA; unlabeled vs labeled N1; legend once says NRF2 for these lanes (apparent typo); 20 mM HEPES (pH not stated), 4 mM MgCl2, 20 mM KCl, 5 mM DTT, 1 mM EDTA, 100 ug/ml BSA, 4% glycerol, poly(dI-dC), 30 min room temperature; native gel 1X TBE. As to conditions: protein: ivt;commercial; tags: His (plasmid pPB-N-His-NRF1, abm PV028854);; copies: 1;1; blunt.

For series [6], the target named is T3, NRF1;MAFG. Briefly: competition EMSA; unlabeled vs labeled N1; 20 mM HEPES (pH not stated), 4 mM MgCl2, 20 mM KCl, 5 mM DTT, 1 mM EDTA, 100 ug/ml BSA, 4% glycerol, poly(dI-dC), 30 min room temperature; native gel 1X TBE. As to conditions: protein: ivt;commercial; tags: His (plasmid pPB-N-His-NRF1, abm PV028854);; copies: 1;1; blunt.
For series [7], the target named is T1, NRF2;MAFG. Kind of series: competition EMSA; excess unlabeled vs labeled N1; 20 mM HEPES (pH not stated), 4 mM MgCl2, 20 mM KCl, 5 mM DTT, 1 mM EDTA, 100 ug/ml BSA, 4% glycerol, poly(dI-dC), 30 min room temperature; native gel 1X TBE. Particulars: protein: recombinant;commercial; tags: His, Flag3 (plasmid pPROHEX-HC-Flag3-NRF2);; copies: 1;1; blunt.

T2 sequence (P01100 whole entry, chain 1 of 2): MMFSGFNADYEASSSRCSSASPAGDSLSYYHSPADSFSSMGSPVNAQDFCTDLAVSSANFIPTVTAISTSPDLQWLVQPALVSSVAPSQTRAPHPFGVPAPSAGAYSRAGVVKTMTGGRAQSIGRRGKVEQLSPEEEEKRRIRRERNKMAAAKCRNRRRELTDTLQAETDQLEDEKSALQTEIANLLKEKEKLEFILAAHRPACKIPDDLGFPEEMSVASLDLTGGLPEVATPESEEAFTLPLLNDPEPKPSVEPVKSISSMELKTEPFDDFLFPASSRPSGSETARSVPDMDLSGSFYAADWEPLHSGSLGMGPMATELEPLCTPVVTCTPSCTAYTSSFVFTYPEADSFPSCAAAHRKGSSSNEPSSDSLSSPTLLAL
T2 sequence (P05412 whole entry, chain 2 of 2): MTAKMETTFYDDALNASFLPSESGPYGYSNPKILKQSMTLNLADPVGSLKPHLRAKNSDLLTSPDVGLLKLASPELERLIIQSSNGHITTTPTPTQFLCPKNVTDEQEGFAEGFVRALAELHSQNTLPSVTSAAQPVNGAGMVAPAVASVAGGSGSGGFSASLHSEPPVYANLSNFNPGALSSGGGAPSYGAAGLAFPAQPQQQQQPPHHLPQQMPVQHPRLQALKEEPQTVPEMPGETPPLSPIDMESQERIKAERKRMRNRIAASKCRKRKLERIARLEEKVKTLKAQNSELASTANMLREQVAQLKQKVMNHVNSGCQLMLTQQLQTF

B1: NQO1 ARE WT (NQO1WT) (dsDNA)
DNA 1: AATCCGCAGTCACAGTGACTCAGCAGAATCTGAGCCTAG
DNA 2: CTAGGCTCAGATTCTGCTGAGTCACTGTGACTGCGGATT
As to B1, the binding result with NRF2;MAFG [1], with FOS;JUN [2] and with NRF1;MAFG [3] was “binds” throughout.

B2: NQO1 ARE mutant (NQO1mut) (dsDNA)
DNA 1: AATCCGCAGTCACAGACTCCTACGAGAATCTGAGCCTAG
DNA 2: CTAGGCTCAGATTCTCGTAGGAGTCTGTGACTGCGGATT
For the molecule B2, the binding result in the series with FOS;JUN [4] and with NRF1;MAFG [5] was “no binding” throughout.

B3: MS4A6A ARE rs667897A (dsDNA)
DNA 1: CTGCGCTCCAAACCCGCTGTGTCATACCATACCGGATGT
DNA 2: ACATCCGGTATGGTATGACACAGCGGGTTTGGAGCGCAG
As for B3, the binding result with NRF1;MAFG [6], with FOS;JUN [4] and with NRF2;MAFG [7] was “binds” in each case.

B4: MS4A6A rs667897G (dsDNA)
DNA 1: CTGCGCTCCAAACCCGCTGTGTCGTACCATACCGGATGT
DNA 2: ACATCCGGTATGGTACGACACAGCGGGTTTGGAGCGCAG
As to B4, the binding result in the series with FOS;JUN [4] and with NRF2;MAFG [7] was “no binding” in each case.
